Laboratory results published in the supplement of paper PMC10724198.
± gives the standard deviation of the averaged measurements.

Tested on: Saccharomyces cerevisiae
Experiment: protein stability index of tFT-peptide fusion (C-terminal peptide) (PSI (0-1 scale)); higher = more stable (slower turnover)
Conditions: genetic background: wild type; temperature: 30 C
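Note: PSI is a weighted mean of sequencing reads over stability bins, variants kept only with over 10 reads, mCherry proximal and sfGFP distal, peptide attached via GGGS linker.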

Row | Sequence | protein stability index
1 | TPLPSLPRPSAP | 0.736 ± 0.016
2 | TPPLHSPFLFPP | 0.671 ± 0.049
3 | TPPPPLSCPPPS | 0.487 ± 0.035
4 | TPPPPLVPPLPP | 0.578 ± 0.017
5 | TPPPTPSLPTRP | 0.677 ± 0.057
6 | TPPTHPPPLPPL | 0.752 ± 0.11
7 | TPRSCTLPTPPP | 0.606 ± 0.051
8 | TPSFTLNAYMLT | 0.693 ± 0.014
9 | TPTPPPSFLHGS | 0.663 ± 0.046
10 | TPTPPRPPFRSP | 0.709 ± 0.035
11 | TPVLPLSPFPPD | 0.607 ± 0.059
12 | TPVPIARLRESH | 0.709 ± 0.035
13 | TPVVSVFFLPHY | 0.673 ± 0.0095
14 | TQHPQPCPLAAV | 0.712 ± 0.12
15 | TQSNRKPLECPS | 0.679 ± 0.066
16 | TRGGTVKDRQQR | 0.702 ± 0.037
17 | TRGSLIFACSVF | 0.576 ± 0.033
18 | TRIEPTQGVDSP | 0.664 ± 0.01
19 | TRPKINKGKGTG | 0.6677 ± 0.0014
20 | TRQGDLYYYLYV | 0.67 ± 0.024
21 | TRRKVKYTELYQ | 0.69 ± 0.041
22 | TRRVKWSWLLKP | 0.7 ± 0.08
23 | TRSAFPSFPTRS | 0.68 ± 0.02
24 | TRTSRGRTLTTL | 0.583 ± 0.016
25 | TRVGNMVARRGS | 0.687 ± 0.048

Row | Sequence | protein stability index
26 | TSFAPPSLPRHS | 0.735 ± 0.056
27 | TSGAEKLPIANS | 0.648 ± 0.05
28 | TSGAKKISSGTQ | 0.707 ± 0.036
29 | TSLPPNLMRTAA | 0.634 ± 0.04
30 | TSNGSGLMFQSQ | 0.62 ± 0.019
31 | TSNLRIISTWRV | 0.685 ± 0.024
32 | TSPGCPFAFITL | 0.714 ± 0.052
33 | TSPPPPIPLPPR | 0.695 ± 0.032
34 | TSPSPLPPLFFT | 0.706 ± 0.0087
35 | TSPTKSPTTTNN | 0.709 ± 0.039
36 | TSSTATWSYRNY | 0.673 ± 0.036
37 | TSTHSFLDFGTG | 0.6272 ± 0.0011
38 | TSTTGLHVSAMS | 0.727 ± 0.021
39 | TSVVRIGVYRAS | 0.613 ± 0.037
40 | TTGNTHALSHAH | 0.717 ± 0.055
41 | TTLNAETCFPLS | 0.702 ± 0.043
42 | TTLPFLLGSGGF | 0.677 ± 0.065
43 | TTVESYLDRRRY | 0.664 ± 0.035
44 | TTVSSSLSPVPD | 0.7181 ± 0.0054
45 | TVERGGSLSLVV | 0.718 ± 0.026
46 | TVKAGESILEQR | 0.716 ± 0.013
47 | TVMRPSVGHVDG | 0.68 ± 0.038
48 | TVSRNKKKKQIQ | 0.613 ± 0.038
49 | TVVYPFHSGGFA | 0.694 ± 0.024
50 | TWGRPGGDHPRE | 0.708 ± 0.0096

Row | Sequence | protein stability index
51 | TWRRAVSERPYP | 0.725 ± 0.1
52 | TWRRGSKPHVRS | 0.724 ± 0.044
53 | TYKKAKIRKKYI | 0.6237 ± 0.0045
54 | TYLGISNLHPAI | 0.709 ± 0.031
55 | TYLSAWQFCVAS | 0.579 ± 0.049
56 | TYRPEMYSRVLT | 0.738 ± 0.011
57 | TYRYWGTLRYYD | 0.761 ± 0.07
58 | TYVPRYPPPLFP | 0.72 ± 0.061
59 | VAACVSLFCGAL | 0.719 ± 0.074
60 | VAAEGCGAALSR | 0.627 ± 0.0099
61 | VAESCVIVFWLG | 0.506 ± 0.0056
62 | VAGGGGGCLVDC | 0.646 ± 0.022
63 | VAGKVWREAEPG | 0.656 ± 0.029
64 | VAGSQYTAGGDV | 0.635 ± 0.044
65 | VALSSECVLSGV | 0.656 ± 0.025
66 | VARLCVPSGPGH | 0.721 ± 0.0096
67 | VASLSGGQISFG | 0.612 ± 0.029
68 | VASTSLPDIRGV | 0.631 ± 0.07
69 | VASWNSDKTKND | 0.752 ± 0.12
70 | VAVGIEGGWWGV | 0.78 ± 0.042
71 | VAYRGGGGWRIS | 0.6865 ± 0.005
72 | VAYSKWIGEIRD | 0.71 ± 0.038
73 | VAYYFVRNIIGE | 0.667 ± 0.056
74 | VCAVAQPCRVQL | 0.683 ± 0.025
75 | VCCDRWWFAFWE | 0.7241 ± 0.0012

Row | Sequence | protein stability index
76 | VCGPCVESLETR | 0.689 ± 0.059
77 | VCGVSWSRFPVL | 0.716 ± 0.0099
78 | VCILPVTCAGMF | 0.6224 ± 0.0012
79 | VCLFWGVSAGCK | 0.65 ± 0.04
80 | VCLGGWCMWGWR | 0.585 ± 0.017
81 | VCNLIRILSLVI | 0.496 ± 0.031
82 | VCVCCMGCGLGV | 0.68773 ± 5.6e-05
83 | VCVGCAACIVGV | 0.636 ± 0.026
84 | VCVVGGSILRAV | 0.711 ± 0.048
85 | VCWLTCCGQLIA | 0.514 ± 0.0068
86 | VCWVRGGGVLDG | 0.711 ± 0.053
87 | VCYGELTISNLE | 0.654 ± 0.045
88 | VDCTCLPKRTYE | 0.643 ± 0.1
89 | VDGLRASRFVGS | 0.7 ± 0.048
90 | VDHIKAHSDSEE | 0.756 ± 0.1
91 | VDKLVRCISVSI | 0.5428 ± 0.0013
92 | VDLLFLMVGTSV | 0.574 ± 0.011
93 | VDRLDAACCIFC | 0.601 ± 0.031
94 | VDVSVLVGLNFV | 0.797 ± 0.056
95 | VECEARTVEKAN | 0.63072 ± 0.00022
96 | VECGVAGSLDLA | 0.713 ± 0.014
97 | VEEYKKRNNKEG | 0.64 ± 0.01
98 | VEHQVNMGDGEM | 0.63525 ± 3.1e-05
99 | VEYSVVDKRLLY | 0.651 ± 0.065
100 | VEYVRSGTLVSG | 0.658 ± 0.06

Row | Sequence | protein stability index
101 | VFFSCVRFCLWF | 0.562 ± 0.0082
102 | VFLISPSSFSPP | 0.738 ± 0.033
103 | VFLNRGSHQQET | 0.691 ± 0.056
104 | VFLQRIDDKSPY | 0.712 ± 0.046
105 | VFLRSGCSGWGE | 0.827 ± 0.094
106 | VFLRSPSRAPSL | 0.72 ± 0.078
107 | VFMPVGVGGGSC | 0.678 ± 0.05
108 | VFPLSLLLTSFL | 0.591 ± 0.047
109 | VFPSLCITSVCT | 0.53 ± 0.02
110 | VFPVGSGLWRVF | 0.63 ± 0.016
111 | VFRFAPILHSHR | 0.585 ± 0.019
112 | VFSCPLLFASFS | 0.672 ± 0.041
113 | VFSPVLVCKMGE | 0.698 ± 0.024
114 | VFTCTGVLFGGM | 0.768 ± 0.12
115 | VFTSPPPLPSPP | 0.728 ± 0.029
116 | VGADVLAYRGVA | 0.604 ± 0.025
117 | VGASRAGGEVSR | 0.651 ± 0.013
118 | VGCACGYGGCGL | 0.682 ± 0.058
119 | VGCEGGRRGVGG | 0.65 ± 0.059
120 | VGCSDFSAIVLD | 0.713 ± 0.069
121 | VGCSSHAFGSSV | 0.686 ± 0.053
122 | VGCSVGHFQRLF | 0.677 ± 0.017
123 | VGDGQGGGGQGG | 0.661 ± 0.022
124 | VGDGQGWGGQGG | 0.688 ± 0.0075
125 | VGDRCDECGFWA | 0.699 ± 0.0043

Row | Sequence | protein stability index
126 | VGFLGFFVVEGV | 0.545 ± 0.033
127 | VGGGGGAEGAGW | 0.739 ± 0.12
128 | VGGGGGGGWWHW | 0.805 ± 0.011
129 | VGGGGLGVEAWG | 0.613 ± 0.059
130 | VGGGGVGAGVWG | 0.653 ± 0.086
131 | VGGGPAALGMWI | 0.689 ± 0.077
132 | VGGGVGVPGVLG | 0.672 ± 0.012
133 | VGGIVGGFCRGR | 0.701 ± 0.069
134 | VGGPRVLVRGVY | 0.6754 ± 0.0055
135 | VGGRVESLGVGD | 0.584 ± 0.017
136 | VGGVGGLWVGAV | 0.7143 ± 0.0018
137 | VGGVWAGGGCSF | 0.651 ± 0.12
138 | VGGWGWLPLPWC | 0.678 ± 0.13
139 | VGGWWAREVVEL | 0.753 ± 0.0085
140 | VGHCSEGTFYPG | 0.65 ± 0.12
141 | VGICWLTEPVLY | 0.731 ± 0.089
142 | VGKFGGAGGICQ | 0.685 ± 0.013
143 | VGKIRWIGFGGW | 0.695 ± 0.051
144 | VGLGGTGGESRY | 0.706 ± 0.027
145 | VGLGMREWLGVE | 0.758 ± 0.026
146 | VGNPHKRGWRAR | 0.60903 ± 0.00027
